Measured values reported in patent publication US5925540A, “Synthetic antifreeze peptide and synthetic gene coding for its production” (Virginia Tech Intellectual Properties, Inc., priority 1991, dated 1999).

Test system: JM109(DE3)
Assay: Studies of cell viability in JM109(DE3) strains bearing pX28 or pX284 after IPTG induction
Format: cell-based, E.coli
Details: WF8R expressed as P10 fusion protein from pX28 / pX284; effects more pronounced in the pX28 harboring strain
From the text: The pX28 and pX284 were transformed into JM109(DE3). The proteins produced in either the JM109(DE3)[pX28] or in the JM109(DE3)[pX284] after induction by IPTG in mid- or late-logarithmic growth phase, have been analyzed by sodium dodecyl sulfate (SDS)-polyacrylamide gel electrophoresis (SDS-PAGE). […] Studies of cell viability in these strains have shown that both strains are adversely affected with respect to growth and stability of the plasmid (these effects were more pronounced in the pX28 harboring strain). […] To avert this problem the applicants decided to protect the fusion protein from intracellular degradation, as well as to protect the cells from the toxicity of WF8R, by adding to the fusion a C-terminal end derived from E.coli β-galactosidase.

B1: WF8R: synthetic antifreeze peptide of 98 amino acids with eight eleven-amino-acid repeats, modeled on winter flounder AFP, expressed in E. coli (protein)
chain: MSTASDAAAAAAATAATAAAAAAATAATAAAAAAATAATAAAAAAATAATAAAAAAATAATAAAAAAATAATAAKAAALTAANAAAAAAATAAAAARG
toxicity to the host cells (growth and stability of the plasmid adversely affected): toxic to the cells
